This series concerns the molecule itself. In words: bead aggregation assay; streptavidin MonoMag beads (1 micron) coated with biotin-tagged PTPµ21-365avi; PBS + 0.01% Tween 20; room temperature; rotation at 150 rpm for 30 min; aggregates over 50 µm^2 counted by microscopy.

From article PMC10001486, “Artificial Intelligence-Based Computational Screening and Functional Assays Identify Candidate Small Molecule Antagonists of PTPmu-Dependent Adhesion” (International Journal of Molecular Sciences, 2023) come the findings set out here.

B1: PTPµ21-365avi (fragment of PTPµ containing the MAM, Ig, and first FNIII repeat) (domain or fragment, human, UniProt P28827 21-365, looked up)
chain: ETFSGGCLFDEPYSTCGYSQSEGDDFNWEQVNTLTKPTSDPWMPSGSFMLVNASGRPEGQRAHLLLPQLKENDTHCIDFHYFVSSKSNSPPGLLNVYVKVNNGPLGNPIWNISGDPTRTWNRAELAISTFWPNFYQVIFEVITSGHQGYLAIDEVKVLGHPCTRTPHFLRIQNVEVNAGQFATFQCSAIGRTVAGDRLWLQGIDVRDAPLKEIKVTSSRRFIASFNVVNTTKRDAGKYRCMIRTEGGVGISNYAELVVKEPPVPIAPPQLASVGATYLWIQLNANSINGDGPIVAREVEYCTASGSWNDRQPVDSTSYKIGHLDPDTEYEISVLLTRPGEGGTGS
modifications: biotin (biotin-tagged)
notes: PTPµ, aa 21-365: MAM domain, Ig domain and first FNIII repeat; held on streptavidin beads by the biotin on the avi tag; the species is stated only for the full-length protein and by the UniProt entry; also called extracellular fragment of PTPmu; source: bacterially expressed
For B1, the binding result is recorded as “binds”.
